Assays:
[1] = molecular target: Chymotrypsin (bovine) (Bovine) (UniProt P00766); assay: cell-based or functional assay
[2] = molecular target: Factor Xa (human) (Human) (UniProt P00742); assay: cell-based or functional assay
[3] = molecular target: Trypsin (bovine) (Bovine) (UniProt P00760); assay: cell-based or functional assay
[4] = molecular target: Cathepsin G (human) (Human) (UniProt P08311); assay: enzyme inhibition at equilibrium, apparent Ki from fit to the tight binding inhibitor equation
Sequence of UniProt P08311 (P08311 21-244 limits assumed): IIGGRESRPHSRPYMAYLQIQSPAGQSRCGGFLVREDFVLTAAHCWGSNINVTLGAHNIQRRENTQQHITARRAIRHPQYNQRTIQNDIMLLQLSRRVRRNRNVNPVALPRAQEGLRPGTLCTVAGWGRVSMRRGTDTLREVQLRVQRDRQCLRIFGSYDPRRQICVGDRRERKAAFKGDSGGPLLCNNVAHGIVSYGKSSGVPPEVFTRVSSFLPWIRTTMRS

[5] = molecular target: Chymotrypsin (bovine) (Bovine) (UniProt P00766); assay: as above
[6] = molecular target: Plasmin (human) (Human) (UniProt P00747); assay: as above
Sequence of UniProt P00747 (P00747 97-810 limits assumed): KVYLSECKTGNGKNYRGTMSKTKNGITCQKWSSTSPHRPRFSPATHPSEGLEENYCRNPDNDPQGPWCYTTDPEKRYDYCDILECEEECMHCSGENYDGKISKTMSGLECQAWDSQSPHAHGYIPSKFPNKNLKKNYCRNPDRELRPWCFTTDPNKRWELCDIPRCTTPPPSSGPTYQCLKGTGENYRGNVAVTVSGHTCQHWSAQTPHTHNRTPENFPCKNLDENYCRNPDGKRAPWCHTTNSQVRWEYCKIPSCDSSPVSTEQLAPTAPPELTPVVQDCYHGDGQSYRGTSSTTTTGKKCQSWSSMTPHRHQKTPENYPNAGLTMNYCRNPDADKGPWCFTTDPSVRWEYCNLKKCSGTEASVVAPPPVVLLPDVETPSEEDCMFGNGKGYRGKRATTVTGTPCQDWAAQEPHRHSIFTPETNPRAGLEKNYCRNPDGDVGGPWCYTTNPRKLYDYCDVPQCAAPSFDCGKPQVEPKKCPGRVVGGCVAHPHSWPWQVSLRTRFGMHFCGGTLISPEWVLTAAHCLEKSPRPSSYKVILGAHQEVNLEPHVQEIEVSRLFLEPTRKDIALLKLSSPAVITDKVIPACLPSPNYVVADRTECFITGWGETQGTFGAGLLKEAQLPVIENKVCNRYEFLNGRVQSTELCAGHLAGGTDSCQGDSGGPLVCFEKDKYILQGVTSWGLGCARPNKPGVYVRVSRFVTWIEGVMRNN

[7] = molecular target: Tissue kallikrein (porcine) (Porcine) (UniProt P00752); assay: as above
Sequence of UniProt P00752 (P00752 8-246 limits assumed): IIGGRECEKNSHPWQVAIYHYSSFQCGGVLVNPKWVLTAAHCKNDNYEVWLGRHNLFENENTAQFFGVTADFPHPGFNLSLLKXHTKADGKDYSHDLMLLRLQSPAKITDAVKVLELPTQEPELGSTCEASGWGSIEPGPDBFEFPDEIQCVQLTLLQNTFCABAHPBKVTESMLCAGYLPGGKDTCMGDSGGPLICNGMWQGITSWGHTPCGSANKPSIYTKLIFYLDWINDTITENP

[8] = molecular target: Trypsin (bovine) (Bovine) (UniProt P00760); assay: as above

Sequence of UniProt P00742 (P00742 41-488 limits assumed): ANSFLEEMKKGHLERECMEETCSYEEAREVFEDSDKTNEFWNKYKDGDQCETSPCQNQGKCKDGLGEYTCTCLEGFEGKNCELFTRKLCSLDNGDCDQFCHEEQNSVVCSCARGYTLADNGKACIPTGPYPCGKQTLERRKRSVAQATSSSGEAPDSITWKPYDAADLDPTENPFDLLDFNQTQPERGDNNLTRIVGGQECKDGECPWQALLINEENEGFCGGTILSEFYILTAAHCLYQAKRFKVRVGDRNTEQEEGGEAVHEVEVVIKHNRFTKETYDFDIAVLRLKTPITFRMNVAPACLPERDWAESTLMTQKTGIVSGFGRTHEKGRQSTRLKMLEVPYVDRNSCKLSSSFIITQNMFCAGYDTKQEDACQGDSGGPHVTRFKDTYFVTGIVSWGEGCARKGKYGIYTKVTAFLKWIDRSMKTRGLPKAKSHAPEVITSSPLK
Sequence of UniProt P00760 (P00760 24-246): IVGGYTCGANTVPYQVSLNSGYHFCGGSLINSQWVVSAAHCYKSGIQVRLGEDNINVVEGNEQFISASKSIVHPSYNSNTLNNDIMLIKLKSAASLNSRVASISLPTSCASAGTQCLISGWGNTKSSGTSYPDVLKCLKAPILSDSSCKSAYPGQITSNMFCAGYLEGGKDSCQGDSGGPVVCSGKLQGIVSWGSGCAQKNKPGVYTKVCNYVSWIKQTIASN

SA [IU/mg] (specific inhibitory activity against chymotrypsin, Mono S pool) [1]: 0.15 IU/mg
Partial Thromboplastin Time, hirustasin at 1.3 mM; buffer 47.3 s [2]: 47.9 s
Quick (prothrombin time), hirustasin at 1.3 mM; buffer 79 % [2]: 80%
SA [IU/mg] (specific inhibitory activity against trypsin, Mono S pool) [3]: 2.7 IU/mg
Ki [4]: 2.9 nM
Ki [5]: 6.4 nM
Ki [6]: 138 nM
Ki [7]: 13 nM
Ki [8]: 7 nM
Substance: hirustasin
